Molecular target: T1, human LHRH receptor (human, UniProt P30968 1-328)
T1 sequence: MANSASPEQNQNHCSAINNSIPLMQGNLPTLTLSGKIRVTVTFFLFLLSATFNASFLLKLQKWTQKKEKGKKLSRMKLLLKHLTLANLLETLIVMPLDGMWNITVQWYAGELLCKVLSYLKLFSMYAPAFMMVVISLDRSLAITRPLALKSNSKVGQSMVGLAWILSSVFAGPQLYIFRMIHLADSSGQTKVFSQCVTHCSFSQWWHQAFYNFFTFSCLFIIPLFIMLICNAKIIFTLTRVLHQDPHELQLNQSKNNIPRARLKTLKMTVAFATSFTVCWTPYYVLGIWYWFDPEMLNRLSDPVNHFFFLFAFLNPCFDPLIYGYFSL
Test: cell-based or functional assay

KFAKFAKKFAKFAKKFAKQHWSYGLRPG [EP-100 (KFAKFAKKFAKFAKKFAKQHWSYGLRPG)]
cytotoxicity IC50, MTT assay, 24 h, AN3-CA human endometrial cancer cells: 3.3 µM
cytotoxicity IC50, MTT assay, 24 h, LNCaP prostate cancer cells: 1.5 µM
cytotoxicity IC50, MTT assay, 24 h, MDA-MB-231 human breast cancer cells: 5.5 µM
cytotoxicity IC50, MTT assay, 24 h, MDA-MB-435S breast cancer cells: 0.8 µM
cytotoxicity IC50, MTT assay, 24 h, OVCAR-3 ovarian cancer cells: 3 µM
cytotoxicity IC50, MTT assay, 24 h, PC-3 prostate cancer cells: 5.5 µM
